Measurements published in patent US20190160148A1, “COMBINATION OF PEMBROLIZUMAB AND ABEMACICLIB FOR THE TREATMENT OF CANCER” (Eli Lilly and Company, priority 2016, published 2019).

Columns and labels:
[1] = system: CT26 syngeneic tumors; assay: CT26 syngeneic tumor growth, concurrent dosing; assay type: in vivo, Balb/C mice; details: day 24; abemaciclib 50 mg/kg for 21 days; 178G7 500 μg/dose 1 time per week, 3 doses; versus vehicle
From the text: CT26 is also a well-known model for immunotherapy. Studies have shown it to be sensitive to inhibitors of a co-inhibitory immune checkpoint including, CTLA-4, PD-1, PD-L1 blockade. Established sensitivity of CT26, and well known range of therapeutic efficacy of immunotherapeutic intervention make it an appropriate model for screening the activity of checkpoint immunotherapies (Grosso and Jure-Kunkel, Cancer Immunity Vol. 13, p. 5, January 2013) (Duraiswamy et al, Cancer Research, Jun. 15, 2013 73; 3591).
CT26 is a murine model, and accordingly, antibodies used in the CT26 model must bind the mouse target protein. […]
Relative changes in tumor volume compared to control are analyzed at day 24, at the point where the most animals remained in all groups for proper statistical comparison. Relative changes in tumor volume (% ΔT/C) are calculated using the formula % ΔT/C=100×ΔT/ΔC, whereby T=mean tumor volume of the compound treated group, ΔT=mean tumor volume of the compound treated group minus the mean tumor volume on the baseline day, C=mean tumor volume of the control (vehicle) group, and ΔC=mean tumor volume of the control group minus the mean tumor volume on the baseline day. […]

[2] = biological target: PD-L1/PD-1 interaction (Mus musculus, UniProt Q9EP73); assay: Blockade of PD-1 binding to PD-L1; details: anti-murine PD-L1 clone
From the text: CT26 is a murine model, and accordingly, antibodies used in the CT26 model must bind the mouse target protein. To model co-inhibitory immune checkpoint therapy, in particular blockade of PD-L1/PD-1 mediated inhibition, anti-murine PD-L1 clone, 178G7 (Known herein in the examples as: anti-PD-L1 antibody or anti-PD-L1 therapy or anti-PD-L1), is produced. The HC of 178G7 is SEQ ID NO: 11, and the LC of 178G7 is SEQ ID NO: 12. […] In particular, 178G7 is used as a a surrogate agents that prevent PD-1 mediated inhibition by PD-L1. as both 178G7 and pembrolizumab block the interaction of PD-1 and PD-L1. 178G7 competes with previously identified surrogate antibody 10F.9G2 known to block PD-L1/PD-1 interaction and is a known surrogate for anti-human antibodies in the clinic (Eppihimer et al. Microcirculation 2002:9(2):133).

Sequence of PD-L1/PD-1 interaction (Q9EP73 19-290): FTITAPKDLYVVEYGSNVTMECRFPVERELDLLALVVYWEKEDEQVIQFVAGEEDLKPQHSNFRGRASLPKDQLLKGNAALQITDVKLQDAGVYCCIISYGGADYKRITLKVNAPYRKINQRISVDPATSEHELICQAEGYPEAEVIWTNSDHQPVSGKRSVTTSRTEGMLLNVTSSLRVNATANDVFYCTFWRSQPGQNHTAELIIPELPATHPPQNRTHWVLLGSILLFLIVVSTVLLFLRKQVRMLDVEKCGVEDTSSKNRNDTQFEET

| blocking of PD-1 binding to PD-L1 [2] | Molecule | %T/C (relative change in tumor volume compared to control) [1] [%] |
| --- | --- | --- |
| – | CCN1CCN(Cc2ccc(Nc3ncc(F)c(-c4cc(F)c5nc(C)n(C(C)C)c5c4)n3)nc2)CC1 [abemaciclib, [5-(4-ethyl-piperazin-1-ylmethyl)-pyridin-2-yl]-[5-fluoro-4-(7-fluoro-3-isopropyl-2-methyl-3H-benzoimidazol-5-yl)-pyrimidin-2-yl]-amine] | 22.3 |
| blocks PD-1 binding to PD-L1 | Anti-PD-L1 antibody: anti-murine PD-L1 clone 178G7, HC SEQ ID NO: 11, LC SEQ ID NO: 12; surrogate that blocks PD-1/PD-L1 interaction (antibody) heavy: QVQLQQSGADLAKPGSSVKISCKASGYNFNSYYINWIKQTTGQGLEYIGYINTVSGTTKYSEKFKGKATLTVDKSSSTAFMQLSSLTPDDSAVYYCARGTIVLDDYWGQGVKVTVSSAETTAPSVYPLAPGTALKSNSMVTLGCLVKGYFPEPVTVTWNSGALSSGVHTFPAVLQSGLYTLTSSVTVPSSTWPSQTVTCNVAHPASSTKVDKKIVPRNCGGDCKPCICTGSEVSSVFIFPSKPKDVLTITLTPKVTCVVVDISQDDPEVHFSWFVDDVEVHTAQTRPPEEQFNSTFRSVSELPILHQDWLNGRTFRCKVTSAAFPSPIEKTISKPEGRTQVPHVYTMSPTKEEMTQNEVSITCMVKGFYPPDIYVEWQMNGQPQENYKNTPPTMDTDGSYFLYSKLNVKKEKWQQGNTFTCSVLHEGLHNHHTEKSLSHSPGK light: DIVMTQTPSSQAVSAGEKVTMSCKSSQSLLYNEKKKNYLAWYQQKPGQSPKLLIYWASTRESGVPDRFLGSGSGTDFTLTINSVQAEDLAVYYCQQSYDFPRTFGGGTKLELKRADAAPTVSIFPPSTEQLATGGASVVCLMNNFYPRDISVKWKIDGTERRDGVLDSVTDQDSKDSTYSMSSTLSLTKADYESHNLYTCEVVHKTSSSPVVKSFNRNEC | 56.1 |
